Patent US20100092484A1 (published 2010)
Positions count from the first letter of the chain named. Names may count otherwise. Values belong to the binder of their own block, whether it stands above or below them.

Assays:
[1] = biological target: T1, human CD44 (on cells) (human, UniProt P16070 21-742); assay: FACS competition against labelled anti-CD44 antibody MEM-85 on cells bearing human CD44; cells: 300-19 cells transfected with human CD44 per legend paragraph 42, but the range 0.2 to 20 µg/ml is that of the human peripheral T cell study in paragraph 322
T1 construct: also called hu CD44 on 300-19 transduced cells; CD44 on human peripheral CD3+ T cells, PBMC and leukocytes

[2] = biological target: T2, cynomolgus CD44 (on cells) (cynomolgus monkey, UniProt P16070 21-742 (human entry)); assay: cell-based or functional assay
T2 chain: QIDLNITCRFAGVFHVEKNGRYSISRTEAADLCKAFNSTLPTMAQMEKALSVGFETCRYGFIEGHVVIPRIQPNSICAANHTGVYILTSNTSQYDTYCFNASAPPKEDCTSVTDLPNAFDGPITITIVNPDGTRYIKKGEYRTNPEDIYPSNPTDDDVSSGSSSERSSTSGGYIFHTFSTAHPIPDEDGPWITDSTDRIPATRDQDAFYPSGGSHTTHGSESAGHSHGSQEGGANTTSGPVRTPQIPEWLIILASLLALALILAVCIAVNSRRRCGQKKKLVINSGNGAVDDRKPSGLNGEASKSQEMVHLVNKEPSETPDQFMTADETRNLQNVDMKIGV

[3] = biological target: T1, human CD44 (on cells); assay: cell-based or functional assay
[4] = biological target: T3, human CD44-IgG1 fusion protein (extracellular domain of human CD44 fused to human IgG1) (human); assay: ELISA on plate-coated CD44-Ig (50 ng), anti-human kappa-HRP detection
T3 construct: also called human CD44-Ig fusion protein; human CD44-Fc fusion protein
Protocol: (§1) A 96 well ELISA plate (Immuno Maxisorp plate, Nunc Cat. No. 442-404) was coated with 50 ng CD44-Ig fusion protein or LYVE-1 and incubated overnight at 4° C. The plates were then washed by PBS, 0.05% Tween-20 and blocked by 3% BSA in PBS for two hours at room temperature. […] The ELISA plates were incubated at room temperature for 1.5 hours. […] Plates were washed again, and […] of TMB were added and incubated for 5 to 10 minutes. ELISA reactions were stopped with stop solution and OD450 values were measured by a plate reader.

[5] = biological target: T1, human CD44 (on cells); assay: FACS equilibrium binding analysis on 300-19 cells transduced with human CD44; printed as 'binding constant'
Protocol: The 300-19 cells which were transduced with retroviral vector encoding human CD44 protein and were washed two times by PBS. […] After 3 hours the cells were washed twice with FACS buffer. The cells were resuspended into 250 μl of 1% paraformaldehyde, (Electron Microscopy Science, Ft. Washington, Pa., Cat. No. 15710). The tubes were read using Becton Dickinson FACSCalibur and the data was analyzed using CellQuest Pro (Becton Dickinson).

[6] = biological target: T2, cynomolgus CD44 (on cells); assay: cell-based or functional assay
[7] = biological target: T1, human CD44 (on cells); assay: cell-based or functional assay; remark: listed apart in the source
[8] = biological target: T3, human CD44-IgG1 fusion protein …; assay: ELISA on plate-coated CD44-Ig against plate-coated LYVE-1
Protocol: as §1

[9] = biological target: T1, human CD44 (on cells); assay: cell-based or functional assay; remark: listed apart in the source
[10] = biological target: T3, human CD44-IgG1 fusion protein …; assay: BIAcore 2000 SPR, human CD44-Ig immobilised on a CM-5 chip, antibody 100 to 0.1 ug/ml as analyte
Protocol: Human CD44-Ig (55 RU, 86 RU) and cyno CD44-Ig (99 RU, 116 RU) were immobilized to CM-5 chips at a concentration of 10 ug/ml in 10 mM Na Acetate pH 3.5. […] The chip was then regenerated with 50 mM NaOH and washed with HBS-EP (BIAcore 22-0512-44). Analysis was carried out on the Biacore 2000. Data was analyzed using BIAEvaluation™ software (n=2).

[11] = biological target: T1, human CD44 (on cells); assay: cell-based or functional assay; remark: listed apart in the source
[12] = biological target: T3, human CD44-IgG1 fusion protein …; assay: ELISA: antibody pre-mixed with human CD44-Ig (0.6 µg/ml); inhibition of CD44-Ig binding to plate-coated hyaluronic acid (HA, a polysaccharide)
Protocol: (§2) Human anti-CD44 antibodies were evaluated for their ability to inhibit the interaction between HA (Sigma, Cat. No. H5388) and human CD44 protein (SEQ ID NO:3) as described in EXAMPLE 2.
(§3) Binding assays were conducted in 96 well ELISA assay plates (Immunolux HB Maxisorp 96-well plates, Nunc Cat. No. 442-404). On day one, 100 μl of rooster comb HA diluted in 50 mM Nabicarb buffer, pH 9.6 at 2.5 mg/ml was added to assay wells on the plate and incubate at 4° C. overnight. Approximately, 24 hours later the HA coated plates were washed four times using 300 μl of PBS buffer with 0.05% Tween-20 (Sigma, Cat. No. P1379). The plates were then blocked by adding 200 μl of 3% BSA in PBS to each well and incubated for 2 hours at 37° C. The blocked plates were then washed with PBS with 0.05% Tween-20. […] The mixture was incubated at room temperature for 60 minutes and then transferred to the HA-coated plates and incubate at room temperature for one hour. The plates were washed by PBS with 0.05% Tween-20. Anti-human IgG-HRP (Amersham Biosciences, Piscataway, N.J., State, Cat. No. NA933) diluted 1:500 in 1% BSA (to detect CD44-Ig that is bound to HA) were added to each wells and incubate at room temperature. […] The reactions were then stopped with 50 μl of stop solution and OD₄₅₀ values were measured on a plate reader.

[13] = biological target: T3, human CD44-IgG1 fusion protein …; assay: BIAcore SPR, human CD44-Fc fusion immobilised on a CM5 chip, antibody as analyte
Protocol: Surface plasmon resonance was used to measure the molecular interaction on a CM5 sensor chip coated with human CD44-Fc fusion protein (12 μg/ml, 10 mM Acetate, pH 4.0) on the surface. Anti-CD44 Abs at concentration of 5, 3, 2, 1, 0.5 and 0.25 μg/ml were screened by direct method. Human IgG1 and IgG2 standards were used to check nonspecific and background binding. Initial portion of the association and dissociation phase of the curves are used to calculate affinity and rate constants and is reported in TABLE 17.

[14] = biological target: T4, lymphatic vessel endothelial hyaluronan receptor 1 protein (LYVE-1) (R&D, Cat. No. 2089-Ly) (UniProt Q9Y5Y7 24-232, limits assumed); assay: ELISA on plate-coated LYVE-1 (50 ng), anti-human kappa-HRP detection
T4 sequence (looked up): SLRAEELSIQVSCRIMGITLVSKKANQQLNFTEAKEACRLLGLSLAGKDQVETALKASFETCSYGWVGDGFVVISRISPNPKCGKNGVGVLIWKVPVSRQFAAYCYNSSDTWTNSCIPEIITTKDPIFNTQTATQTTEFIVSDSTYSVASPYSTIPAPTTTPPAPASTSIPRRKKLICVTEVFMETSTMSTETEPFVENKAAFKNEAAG
Protocol: as §1

[15] = biological target: T3, human CD44-IgG1 fusion protein …; assay: ELISA: antibody pre-mixed with human CD44-Ig (0.6 µg/ml); inhibition of CD44-Ig binding to plate-coated hyaluronic acid (HA)
Protocol: as §2, §3

B1: anti-CD44 monoclonal antibody 1A9.A6.B9 (antibody, human IgG2, kappa, V domains shown)
VH: QVQLVESGGGVVQPGRSLRLSCAASGFTFSSYGMHWVRQAPGKGLEWVAVIWYDGSNKFYADSVKGRFTISRDNSKNTLYLQMNSLRAEDTAVYYCARRSDYRGYYGMDVWGQGTTVTVSS
VL: EIVLTQSPATLSLSPGERATLSCRASQSVINYLAWYQQKPGQAPRLLIYDASNRASGIPARFSGSGSGTDFTLTISSLEPEDFAVYYCQQRRNWPLTFGGGTKVEIKR
notes: also called mAb 1A9.A6.B9
IC50 (read off the curve) [1]: ~3 µg/mL | IC50 of reduction of CD44 expression on cynomolgus peripheral blood T cells (FACS) [2]: 1.1 µg/mL | IC50 of reduction of CD44 expression on human peripheral blood B cells (FACS) [3]: 2.4 µg/mL | IC50 of reduction of CD44 expression on human peripheral blood T cells (FACS) [3]: 2.6 µg/mL | IC50 of reduction of CD44 expression on human peripheral blood monocytes (FACS) [3]: 3.3 µg/mL | EC50 [4]: 0.011 µg/mL | Kd [5]: 6.8 nM | IC50 of reduction of CD44 surface expression on cynomolgus peripheral CD3+ T cells (FACS) [6]: 0.82 µg/mL | IC50 of reduction of CD44 surface expression on human peripheral CD3+ T cells (FACS) [7]: 2.8 µg/mL | fold selectivity for CD44 over LYVE-1 [8]: > 100 fold | IC50 of IL-1β release from purified human PBMC stimulated by HA [9]: 0.83 µg/mL | Kd [10]: 0.051 nM | koff [10]: 0.00039 s⁻¹ | IC50 of IFN-γ release from human peripheral blood activated by anti-CD3 and anti-CD28 antibodies [11]: 2.46 µg/mL | IC50 of IL-2 release from human peripheral blood activated by anti-CD3 and anti-CD28 antibodies [11]: 0.58 µg/mL | IC50 [12]: 0.41 µg/mL | Kd [13]: 0.6 nM | koff [13]: 0.000576 s⁻¹ | binding result [14]: no binding (tested: 10 µg/ml)

B2: 2D1 WT/H38Q (mutated antibody 2D1.A3.D12: wild-type heavy chain, light chain H38Q) (antibody, human IgG1, kappa, V domains shown)
VH: QVQLVQSGAEVKKPGASVKVSCKASGYIFTSYAMHWVRQAPGQRLEWMGWINAAIGSTKYSQKFQGRVTITRDTSASTAYMELSSLRSEDTAVYYCARDGWEDYYYHGMDVWGQGTTVTVSS
VL: DIQMTQSPSSVSASVGDRVTITCRASQGISSWLAWYQQKPGKAPKLLIYAASSLQSGVPSRFSGSGSGTDFTLTISSLQPEDFATYYCQQANNFPWTFGQGTKVEIKR
IC50 of IFN-γ release from human peripheral blood activated by anti-CD3 and anti-CD28 antibodies [11]: 2.45 µg/mL | IC50 of IL-2 release from human peripheral blood activated by anti-CD3 and anti-CD28 antibodies [11]: 0.46 µg/mL

B3: anti-CD44 monoclonal antibody 2D1.A3.D12 (antibody, human IgG1, kappa, V domains shown)
VH: B2 VH
VL: B2 VL with Q38H
IC50 [15]: 0.33 µg/mL | EC50 [4]: 0.024 µg/mL | IC50 of reduction of CD44 surface expression on cynomolgus peripheral CD3+ T cells (FACS) [6]: > 20 µg/mL | IC50 of reduction of CD44 surface expression on human peripheral CD3+ T cells (FACS) [7]: > 20 µg/mL | fold selectivity for CD44 over LYVE-1 [8]: > 100 fold | IC50 of IL-1β release from purified human PBMC stimulated by HA [9]: 0.23 µg/mL | Kd [13]: 2.01 nM | koff [13]: 0.000653 s⁻¹ | binding result [14]: no binding (tested: 10 µg/ml)

Continued, values first:

IC50 [15]: 0.64 µg/mL | IC50 of reduction of CD44 surface expression on human peripheral CD3+ T cells (FACS) [7]: > 20 µg/mL | IC50 of IL-1β release from purified human PBMC stimulated by HA [9]: 0.4 µg/mL
B4: anti-CD44 monoclonal antibody 10C8.2.3 (antibody, human IgG4, kappa, V domains shown)
VH: EVQLMESGGGLVKPGGSLRLSCAASGFTFSSYSMNWVRQAPGKGLEWVSSITVRSSYIYYADSVKGRFTISRDNAKNSLYLQMNSLRAEDTAVYYCARVLAIAVPGTSYYYYGMDVWGQGTTVTVSS
VL: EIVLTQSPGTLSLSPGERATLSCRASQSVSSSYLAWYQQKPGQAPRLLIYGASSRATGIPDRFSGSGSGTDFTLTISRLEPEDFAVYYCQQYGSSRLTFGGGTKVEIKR

binding result [14]: no binding (tested: 10 µg/ml)
B5: anti-CD44 monoclonal antibody 14G9.B8.B4 (antibody, human IgG1, kappa, V domains shown)
VH: QVQLVQSGAEVKKPGASVKVSCKASGYTFTNYAMHWVRQAPGQRLEWMGWINTGNGNTKYSQKFQGRVTITRDTSASTAYMELSSLRSEDTAVYYCARFYSGSGSPWGQGTLVTVSS
VL: not shown
